Measured values from patent US20230002480A1.

Key:
Experiment in all cases: cell-based or functional assay
[1] = molecular target: HIV-1 Env of pseudovirus 231965.c01 (HIV-1)
[2] = molecular target: HIV-1 Env of pseudovirus 3016.v5.c45 (HIV-1)
[3] = molecular target: HIV-1 Env of pseudovirus 6240_08_TA5_4622 (HIV-1)
[4] = molecular target: HIV-1 Env of pseudovirus 6535.3 (HIV-1)
[5] = molecular target: HIV-1 Env of pseudovirus 6545.v4.c1 (HIV-1)
[6] = molecular target: HIV-1 Env of pseudovirus 7030102001E5(Rev-) (HIV-1)
[7] = molecular target: HIV-1 Env of pseudovirus 89-F1_2_25 (HIV-1)
[8] = molecular target: HIV-1 Env of pseudovirus A07412M1.vrc12 (HIV-1)
[9] = molecular target: HIV-1 Env of pseudovirus AC10.0.29 (HIV-1)
[10] = molecular target: HIV-1 Env of pseudovirus BJOX028000.10.3 (HIV-1)
[11] = molecular target: HIV-1 Env of pseudovirus CAAN5342.A2 (HIV-1)
[12] = molecular target: HIV-1 Env of pseudovirus CAP210.2.00.E8 (HIV-1)
[13] = molecular target: HIV-1 Env of pseudovirus CNE17 (HIV-1)
[14] = molecular target: HIV-1 Env of pseudovirus CNE21 (HIV-1)
[15] = molecular target: HIV-1 Env of pseudovirus CNE52 (HIV-1)
[16] = molecular target: HIV-1 Env of pseudovirus Ce0393_C3 (HIV-1)
[17] = molecular target: HIV-1 Env of pseudovirus Ce1172_H1 (HIV-1)
[18] = molecular target: HIV-1 Env of pseudovirus Ce1176_A3 (HIV-1)
[19] = molecular target: HIV-1 Env of pseudovirus Ce2060_G9 (HIV-1)
[20] = molecular target: HIV-1 Env of pseudovirus Ce703010054_2A2 (HIV-1)
[21] = molecular target: HIV-1 Env of pseudovirus HIV-001428-2.42 (HIV-1)
[22] = molecular target: HIV-1 Env of pseudovirus HIV-16845-2.22 (HIV-1)
[23] = molecular target: HIV-1 Env of pseudovirus MS208.A1 (HIV-1)
[24] = molecular target: HIV-1 Env of pseudovirus P1981_C5_3 (HIV-1)
[25] = molecular target: HIV-1 Env of pseudovirus Q259.d2.17 (HIV-1)
[26] = molecular target: HIV-1 Env of pseudovirus Q461.e2 (HIV-1)
[27] = molecular target: HIV-1 Env of pseudovirus R2184.c04 (HIV-1)
[28] = molecular target: HIV-1 Env of pseudovirus REJO4541.67 (HIV-1)
[29] = molecular target: HIV-1 Env of pseudovirus RHPA4259.7 (HIV-1)
[30] = molecular target: HIV-1 Env of pseudovirus T255-34 (HIV-1)
[31] = molecular target: HIV-1 Env of pseudovirus TRO.11 (HIV-1)
[32] = molecular target: HIV-1 Env of pseudovirus WEAU_d15_410_787 (HIV-1)
[33] = molecular target: HIV-1 Env of pseudovirus WITO4160.33 (HIV-1)
[34] = molecular target: HIV-1 Env of pseudovirus X1254_c3 (HIV-1)
[35] = molecular target: HIV-1 Env of pseudovirus X2131_C1_B5 (HIV-1)
[36] = molecular target: HIV-1 Env of pseudovirus ZM247v1(Rev-) (HIV-1)
[37] = molecular target: HIV-1 Env of pseudovirus ZM249M.PL1 (HIV-1)

PGT121 (antibody)
IC50 [1]: > 50 µg/mL | IC80 [1]: > 50 µg/mL | IC50 [2]: > 50 µg/mL | IC80 [2]: > 50 µg/mL | IC50 [3]: 0.033 µg/mL | IC80 [3]: 0.127 µg/mL | IC50 [4]: 0.002 µg/mL | IC80 [4]: 0.008 µg/mL | IC50 [5]: > 50 µg/mL | IC80 [5]: > 50 µg/mL | IC50 [6]: 0.009 µg/mL | IC80 [6]: 0.027 µg/mL | IC50 [7]: > 50 µg/mL | IC80 [7]: > 50 µg/mL | IC50 [8]: 0.009 µg/mL | IC80 [8]: 0.075 µg/mL | IC50 [9]: 0.024 µg/mL | IC80 [9]: 0.073 µg/mL | IC50 [10]: > 50 µg/mL | IC80 [10]: > 50 µg/mL | IC50 [11]: 0.007 µg/mL | IC80 [11]: 0.023 µg/mL | IC50 [12]: 26.3 µg/mL | IC80 [12]: > 50 µg/mL | IC50 [13]: 7.6 µg/mL | IC80 [13]: > 50 µg/mL | IC50 [14]: 0.007 µg/mL | IC80 [14]: 0.035 µg/mL | IC50 [15]: 2.04 µg/mL | IC80 [15]: 18.9 µg/mL | IC50 [16]: > 50 µg/mL | IC80 [16]: > 50 µg/mL | IC80 [17]: 0.036 µg/mL | IC50 [18]: 0.013 µg/mL | IC80 [18]: 0.035 µg/mL | IC50 [19]: > 50 µg/mL | IC80 [19]: > 50 µg/mL | IC50 [20]: > 50 µg/mL | IC80 [20]: > 50 µg/mL | IC50 [21]: 0.014 µg/mL | IC80 [21]: 0.051 µg/mL | IC50 [22]: 3.97 µg/mL | IC80 [22]: 44.6 µg/mL | IC50 [23]: > 50 µg/mL | IC80 [23]: > 50 µg/mL | IC50 [24]: < 0.001 µg/mL | IC80 [24]: < 0.001 µg/mL | IC50 [25]: 15.4 µg/mL | IC80 [25]: > 50 µg/mL | IC50 [26]: > 50 µg/mL | IC80 [26]: > 50 µg/mL | IC50 [27]: > 50 µg/mL | IC80 [27]: > 50 µg/mL | IC50 [28]: 4.77 µg/mL | IC80 [28]: > 50 µg/mL | IC80 [29]: 0.035 µg/mL | IC50 [30]: 18.7 µg/mL | IC80 [30]: > 50 µg/mL | IC50 [31]: 0.005 µg/mL | IC80 [31]: 0.025 µg/mL | IC50 [32]: 0.026 µg/mL | IC80 [32]: 0.077 µg/mL | IC50 [33]: 0.334 µg/mL | IC80 [33]: 2.35 µg/mL | IC50 [34]: 0.014 µg/mL | IC80 [34]: 0.08 µg/mL | IC50 [35]: 0.004 µg/mL | IC80 [35]: 0.023 µg/mL | IC50 [36]: 0.028 µg/mL | IC80 [36]: 0.082 µg/mL | IC50 [37]: > 50 µg/mL | IC80 [37]: > 50 µg/mL
